Like-named read-outs stand apart in the source and are kept apart here.
B1: gRNA TF-A + target ssDNA MZ-949 (DNA:RNA)
RNA: AUAAUGGUUUCUUAGACGUCGUUUUAGAGCUGUGUUGUUUCG
DNA: CGAAACAACACAGCTCTAAAACGACGTCTAAGAAACCATTAT
modifications: 5'-phosphate on guide
B2: gRNA TF-A + target ssRNA MZ-1185 (dsRNA)
RNA 1: B1 RNA
RNA 2: CGAAACAACACAGCUCUAAAACGACGUCUAAGAAACCAUUAU
modifications: 5'-phosphate on guide
B3: gDNA TK-49 + target ssDNA MZ-949 (dsDNA)
DNA 1: ATAATGGTTTCTTAGACGTCGTTTTAGAGCTGTGTTGTTTCG
DNA 2: B1 DNA
modifications: 5'-phosphate on guide
B4: gDNA TK-49 + target ssRNA MZ-1185 (DNA:RNA)
DNA: B3 DNA 1
RNA: B2 RNA 2
modifications: 5'-phosphate on guide
B5: gRNA TF-A + nsp-ssDNA MZ-589 (mixed)
RNA: B1 RNA
DNA: GGAGATGGGAAGTCATTAGATGTAGAACTTGAATGGCAACGG
modifications: 5'-phosphate on guide
B6: RNA/DNA heteroduplex (TF-A/MZ-949) (DNA:RNA)
RNA: B1 RNA
DNA: B1 DNA
B7: dsDNA (TK-49/MZ-949) (dsDNA)
DNA 1: B3 DNA 1
DNA 2: B1 DNA
B8: dsRNA (TF-A/MZ-1185) (dsRNA)
RNA 1: B1 RNA
RNA 2: B2 RNA 2

Key:
[1] = molecular target: TwinStrep-CcSir2 protein (TwinStrep-tag fused to the N-terminus of His6-CcSir2) (Caballeronia cordobensis); assay: co-elution from a Heparin column with SDS-PAGE densitometry
GsSir2;GsAgo [2] = molecular target: T1, GsSir2;GsAgo (Geobacter sulfurreducens Caccavo (ATCC …, UniProt Q74DF6;Q74DF5 1-587;1-473, |)); assay: EMSA
GsSir2APAZ;GsAgo = GsSir2APAZ;GsAgo (Geobacter sulfurreducens Caccavo (ATCC …, UniProt Q74DF6;Q74DF5 1-587;1-473, R440E;R442E;R517E;R525E;R528E;R531E|)); assay: EMSA
GsSir2(D230A);GsAgo [3] = molecular target: T2, GsSir2(D230A);GsAgo (Geobacter sulfurreducens Caccavo (ATCC …, UniProt Q74DF6;Q74DF5 1-587;1-473, D230A|)); assay: EMSA
GsSir2;GsAgo [4] = molecular target: T1, GsSir2;GsAgo; assay: EMSA; remark: listed apart in the source
GsSir2(D230A);GsAgo [5] = molecular target: T2, GsSir2(D230A);GsAgo; assay: EMSA; remark: listed apart in the source
GsSir2;GsAgo [6] = molecular target: T1, GsSir2;GsAgo; assay: EMSA; remark: listed apart in the source

Row | Molecule | Kd (GsSir2;GsAgo [2]) [nM] | Kd (GsSir2;GsAgo [4]) [nM] | further results
1 | CcAgo protein (short pAgo of the CcSir2/Ago system) (natural protein) |  |  | stoichiometry N [1]: 1 Sir2:Ago
2 | ATAATGGTTTCTTAGACGTCGTTTTAGAGCTGTGTTGTTTCG (ssDNA) [ssDNA (TK-49)] | 0.033 ± 0.016 |  | 
3 | AUAAUGGUUUCUUAGACGUCGUUUUAGAGCUGUGUUGUUUCG (ssRNA) [ssRNA (TF-A)] | 0.042 ± 0.015 |  | 
4 | B1 |  | 0.02 ± 0.008 | binding result (GsSir2APAZ;GsAgo): no binding; Kd (GsSir2(D230A);GsAgo [3]): 0.038 ± 0.013 nM; Kd (GsSir2(D230A);GsAgo [5]): 0.14 ± 0.057 nM; Kd (GsSir2;GsAgo [6]): 0.079 ± 0.007 nM
5 | B2 |  | 0.205 ± 0.058 | Kd (GsSir2;GsAgo [6]): 0.567 ± 0.112 nM
6 | B3 |  | 0.022 ± 0.005 | 
7 | B4 |  | 0.252 ± 0.114 | 
8 | ATAATGGTTTCTTAGACGTCGTTTTAGAGCTGTGTTGTTTCG (ssDNA, circularised by CircLigase II) [circular ssDNA (TK-49)] | 0.072 ± 0.018 |  | 
9 | B5 |  | 0.42 ± 0.231 | 
10 | B6 | 4.31 ± 0.37 |  | 
11 | B7 | 51 ± 20 |  | 
12 | B8 | 73 ± 29 |  | 
